In publication PMC2064543:

Biological target: adenomatous polyposis coli (APC), endogenous in Xenopus egg extracts (Xenopus laevis (endogenous in egg extracts)) (UniProt P70039)
Test: co-IP

Chain of UniProt P70039 (P70039 whole entry): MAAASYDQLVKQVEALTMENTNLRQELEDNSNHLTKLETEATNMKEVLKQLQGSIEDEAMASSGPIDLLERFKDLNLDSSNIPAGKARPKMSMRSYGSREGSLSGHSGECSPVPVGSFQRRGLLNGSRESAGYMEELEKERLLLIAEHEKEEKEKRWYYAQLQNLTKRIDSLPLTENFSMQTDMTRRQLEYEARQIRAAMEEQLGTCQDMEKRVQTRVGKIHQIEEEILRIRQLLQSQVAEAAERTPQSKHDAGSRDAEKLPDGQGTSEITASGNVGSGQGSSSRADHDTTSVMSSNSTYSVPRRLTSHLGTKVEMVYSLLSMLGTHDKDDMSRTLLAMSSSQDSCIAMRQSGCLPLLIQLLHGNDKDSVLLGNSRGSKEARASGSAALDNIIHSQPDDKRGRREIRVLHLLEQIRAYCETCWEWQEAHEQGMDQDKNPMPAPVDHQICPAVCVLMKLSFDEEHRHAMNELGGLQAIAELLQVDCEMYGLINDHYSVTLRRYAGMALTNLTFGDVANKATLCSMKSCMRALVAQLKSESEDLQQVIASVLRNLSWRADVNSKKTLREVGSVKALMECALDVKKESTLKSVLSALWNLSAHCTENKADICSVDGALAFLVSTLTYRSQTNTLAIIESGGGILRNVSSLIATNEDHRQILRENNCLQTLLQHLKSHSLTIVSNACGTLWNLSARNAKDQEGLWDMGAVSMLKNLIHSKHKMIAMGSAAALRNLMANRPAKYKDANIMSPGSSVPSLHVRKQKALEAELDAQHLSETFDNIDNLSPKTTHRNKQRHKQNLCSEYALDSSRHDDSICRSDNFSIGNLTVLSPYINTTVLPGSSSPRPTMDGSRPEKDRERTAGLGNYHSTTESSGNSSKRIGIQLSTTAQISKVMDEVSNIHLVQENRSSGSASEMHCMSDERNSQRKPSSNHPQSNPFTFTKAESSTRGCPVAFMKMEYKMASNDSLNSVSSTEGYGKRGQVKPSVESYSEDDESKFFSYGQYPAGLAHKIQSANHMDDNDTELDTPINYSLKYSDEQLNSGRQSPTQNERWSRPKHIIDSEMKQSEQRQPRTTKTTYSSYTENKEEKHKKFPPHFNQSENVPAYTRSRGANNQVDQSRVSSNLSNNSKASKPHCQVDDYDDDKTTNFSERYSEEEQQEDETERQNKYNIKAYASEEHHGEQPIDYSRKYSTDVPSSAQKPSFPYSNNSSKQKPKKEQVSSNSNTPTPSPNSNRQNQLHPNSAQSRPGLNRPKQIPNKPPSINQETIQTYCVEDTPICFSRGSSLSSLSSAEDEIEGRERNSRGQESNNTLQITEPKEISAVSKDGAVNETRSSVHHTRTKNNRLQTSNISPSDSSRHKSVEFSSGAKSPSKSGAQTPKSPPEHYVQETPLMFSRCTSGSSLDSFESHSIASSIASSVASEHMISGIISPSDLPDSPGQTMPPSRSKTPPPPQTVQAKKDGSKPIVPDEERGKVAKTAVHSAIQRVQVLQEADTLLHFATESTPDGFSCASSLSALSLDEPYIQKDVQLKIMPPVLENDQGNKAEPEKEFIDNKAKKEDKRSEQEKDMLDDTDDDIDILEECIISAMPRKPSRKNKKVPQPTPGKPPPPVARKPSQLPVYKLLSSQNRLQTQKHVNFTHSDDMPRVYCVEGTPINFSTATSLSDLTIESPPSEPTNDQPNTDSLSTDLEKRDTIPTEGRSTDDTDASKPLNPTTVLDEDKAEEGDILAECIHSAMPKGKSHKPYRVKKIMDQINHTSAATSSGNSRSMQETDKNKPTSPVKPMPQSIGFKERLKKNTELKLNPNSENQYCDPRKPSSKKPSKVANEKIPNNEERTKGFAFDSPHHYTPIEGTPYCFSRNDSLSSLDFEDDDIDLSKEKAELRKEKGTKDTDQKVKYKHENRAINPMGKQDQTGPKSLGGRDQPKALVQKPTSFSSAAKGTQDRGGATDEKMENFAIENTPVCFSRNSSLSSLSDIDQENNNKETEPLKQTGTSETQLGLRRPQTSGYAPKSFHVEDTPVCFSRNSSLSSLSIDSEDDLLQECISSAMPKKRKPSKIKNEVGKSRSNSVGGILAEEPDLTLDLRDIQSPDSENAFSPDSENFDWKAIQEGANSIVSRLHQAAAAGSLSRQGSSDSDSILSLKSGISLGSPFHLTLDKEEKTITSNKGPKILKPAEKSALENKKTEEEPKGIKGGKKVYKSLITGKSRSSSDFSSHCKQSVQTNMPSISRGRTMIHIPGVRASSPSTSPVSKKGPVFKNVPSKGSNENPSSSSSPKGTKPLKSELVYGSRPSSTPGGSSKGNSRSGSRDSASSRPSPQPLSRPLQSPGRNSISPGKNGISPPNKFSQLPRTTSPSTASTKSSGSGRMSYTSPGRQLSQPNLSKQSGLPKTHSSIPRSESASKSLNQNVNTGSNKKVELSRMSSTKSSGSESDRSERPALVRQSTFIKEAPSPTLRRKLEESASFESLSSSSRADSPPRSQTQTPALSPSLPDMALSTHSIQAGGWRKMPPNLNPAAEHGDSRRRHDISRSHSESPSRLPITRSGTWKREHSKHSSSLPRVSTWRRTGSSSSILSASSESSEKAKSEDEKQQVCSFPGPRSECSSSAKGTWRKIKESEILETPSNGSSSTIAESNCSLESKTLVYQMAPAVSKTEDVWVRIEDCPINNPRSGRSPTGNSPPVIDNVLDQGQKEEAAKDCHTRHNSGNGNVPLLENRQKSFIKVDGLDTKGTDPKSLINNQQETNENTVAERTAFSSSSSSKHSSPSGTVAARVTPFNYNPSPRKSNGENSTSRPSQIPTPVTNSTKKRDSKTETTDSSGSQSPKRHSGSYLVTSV

## GST–KD-BubR1 (recombinant Xenopus kinase-dead BubR1) (from UniProt B7ZQ97 1-1041) (natural protein)
  percent less coimmunoprecipitated with APC than WT-BubR1: 40%
